# In patent publication US20140087995A1 (published 2014):
# Numbered stars: 1 amine (or outer) side, 2 acyl side, 3 side chain; on linkers, the order of the positions; unused ones are H or OH. Bridge positions count the residues as written; N and C are the ends. Side chains are listed from the residue outwards. Ends that are not written are not given here. * marks the point of attachment. C20 diacid = O=C(O)CCCCCCCCCCCCCCCCCCC(=O)*; γGlu = O=C(O)[C@H](CCC(=O)[*:2])N[*:1]
# T1: human calcitonin receptor (human, UniProt P30988 25-474)
# T1 sequence (looked up): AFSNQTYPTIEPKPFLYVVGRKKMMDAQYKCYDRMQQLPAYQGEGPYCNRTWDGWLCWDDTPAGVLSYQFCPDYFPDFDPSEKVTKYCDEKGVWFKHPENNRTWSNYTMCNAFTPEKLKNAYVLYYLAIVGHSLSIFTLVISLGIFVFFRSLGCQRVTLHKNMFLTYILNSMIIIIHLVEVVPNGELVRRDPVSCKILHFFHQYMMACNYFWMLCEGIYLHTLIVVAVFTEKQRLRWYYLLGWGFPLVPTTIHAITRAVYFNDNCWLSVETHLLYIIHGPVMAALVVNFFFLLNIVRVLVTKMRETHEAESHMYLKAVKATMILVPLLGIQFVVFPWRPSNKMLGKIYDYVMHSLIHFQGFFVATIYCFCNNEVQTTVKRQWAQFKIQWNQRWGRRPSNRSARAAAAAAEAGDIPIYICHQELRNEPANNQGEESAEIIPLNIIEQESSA
# Biological target: T1, human calcitonin receptor
# Test: cell-based or functional assay
row,hCTR funct. EC50 (pM),Binder
1,1730,"{C20 diacid-γGlu}-GRCNTATCATQRLAHFLRHSSPNFGAIPSSTNVGHNTY-NH2 (disulfide 3-8; SMILES CC[C@H](C)[C@H](NC(=O)[C@H](C)NC(=O)CNC(=O)[C@H](Cc1ccccc1)NC(=O)[C@H](CC(N)=O)NC(=O)[C@@H]1CCCN1C(=O)[C@H](CO)NC(=O)[C@H](CO)NC(=O)[C@H](Cc1c[nH]cn1)NC(=O)[C@H](CCCNC(=N)N)NC(=O)[C@H](CC(C)C)NC(=O)[C@H](Cc1ccccc1)NC(=O)[C@H](Cc1c[nH]cn1)NC(=O)[C@H](C)NC(=O)[C@H](CC(C)C)NC(=O)[C@H](CCCNC(=N)N)NC(=O)[C@H](CCC(N)=O)NC(=O)[C@@H](NC(=O)[C@H](C)NC(=O)[C@@H]1CSSC[C@H](NC(=O)[C@H](CCCNC(=N)N)NC(=O)CNC(=O)CC[C@H](NC(=O)CCCCCCCCCCCCCCCCCCC(=O)O)C(=O)O)C(=O)N[C@@H](CC(N)=O)C(=O)N[C@@H]([C@@H](C)O)C(=O)N[C@@H](C)C(=O)N[C@@H]([C@@H](C)O)C(=O)N1)[C@@H](C)O)C(=O)N1CCC[C@H]1C(=O)N[C@@H](CO)C(=O)N[C@@H](CO)C(=O)N[C@H](C(=O)N[C@@H](CC(N)=O)C(=O)N[C@H](C(=O)NCC(=O)N[C@@H](Cc1c[nH]cn1)C(=O)N[C@@H](CC(N)=O)C(=O)N[C@H](C(=O)N[C@@H](Cc1ccc(O)cc1)C(N)=O)[C@@H](C)O)C(C)C)[C@@H](C)O, 38 residues; also called compound 100)"
2,102,K([γGlu-γGlu-C20 diacid])CNTATCATQRLAEFLRHSSPNFGAIPSSTNVGPETP-NH2 (disulfide 2-7; N-terminus assumed; SMILES CC[C@H](C)[C@H](NC(=O)[C@H](C)NC(=O)CNC(=O)[C@H](Cc1ccccc1)NC(=O)[C@H](CC(N)=O)NC(=O)[C@@H]1CCCN1C(=O)[C@H](CO)NC(=O)[C@H](CO)NC(=O)[C@H](Cc1c[nH]cn1)NC(=O)[C@H](CCCNC(=N)N)NC(=O)[C@H](CC(C)C)NC(=O)[C@H](Cc1ccccc1)NC(=O)[C@H](CCC(=O)O)NC(=O)[C@H](C)NC(=O)[C@H](CC(C)C)NC(=O)[C@H](CCCNC(=N)N)NC(=O)[C@H](CCC(N)=O)NC(=O)[C@@H](NC(=O)[C@H](C)NC(=O)[C@@H]1CSSC[C@H](NC(=O)[C@@H](N)CCCCNC(=O)CC[C@H](NC(=O)CC[C@H](NC(=O)CCCCCCCCCCCCCCCCCCC(=O)O)C(=O)O)C(=O)O)C(=O)N[C@@H](CC(N)=O)C(=O)N[C@@H]([C@@H](C)O)C(=O)N[C@@H](C)C(=O)N[C@@H]([C@@H](C)O)C(=O)N1)[C@@H](C)O)C(=O)N1CCC[C@H]1C(=O)N[C@@H](CO)C(=O)N[C@@H](CO)C(=O)N[C@H](C(=O)N[C@@H](CC(N)=O)C(=O)N[C@H](C(=O)NCC(=O)N1CCC[C@H]1C(=O)N[C@@H](CCC(=O)O)C(=O)N[C@H](C(=O)N1CCC[C@H]1C(N)=O)[C@@H](C)O)C(C)C)[C@@H](C)O)
3,887,"K([γGlu-γGlu-C20 diacid])CNTATCATQRLASFLRHSSPNFGAIPSSTNVGPETY-NH2 (disulfide 2-7; N-terminus assumed; SMILES CC[C@H](C)[C@H](NC(=O)[C@H](C)NC(=O)CNC(=O)[C@H](Cc1ccccc1)NC(=O)[C@H](CC(N)=O)NC(=O)[C@@H]1CCCN1C(=O)[C@H](CO)NC(=O)[C@H](CO)NC(=O)[C@H](Cc1c[nH]cn1)NC(=O)[C@H](CCCNC(=N)N)NC(=O)[C@H](CC(C)C)NC(=O)[C@H](Cc1ccccc1)NC(=O)[C@H](CO)NC(=O)[C@H](C)NC(=O)[C@H](CC(C)C)NC(=O)[C@H](CCCNC(=N)N)NC(=O)[C@H](CCC(N)=O)NC(=O)[C@@H](NC(=O)[C@H](C)NC(=O)[C@@H]1CSSC[C@H](NC(=O)[C@@H](N)CCCCNC(=O)CC[C@H](NC(=O)CC[C@H](NC(=O)CCCCCCCCCCCCCCCCCCC(=O)O)C(=O)O)C(=O)O)C(=O)N[C@@H](CC(N)=O)C(=O)N[C@@H]([C@@H](C)O)C(=O)N[C@@H](C)C(=O)N[C@@H]([C@@H](C)O)C(=O)N1)[C@@H](C)O)C(=O)N1CCC[C@H]1C(=O)N[C@@H](CO)C(=O)N[C@@H](CO)C(=O)N[C@H](C(=O)N[C@@H](CC(N)=O)C(=O)N[C@H](C(=O)NCC(=O)N1CCC[C@H]1C(=O)N[C@@H](CCC(=O)O)C(=O)N[C@H](C(=O)N[C@@H](Cc1ccc(O)cc1)C(N)=O)[C@@H](C)O)C(C)C)[C@@H](C)O, also called compound 120)"
4,2830,K([γGlu-γGlu-C20 diacid])CNTATCATQRLAEFLRHSSPNFGAIPSSTNVGPHTY-NH2 (disulfide 2-7 (inferred))
5,2140,K([γGlu-γGlu-C20 diacid])CNTATCATQRLAEFLRHSSPNFGAIPSSTNVGPNTF-NH2 (disulfide 2-7; N-terminus assumed; SMILES CC[C@H](C)[C@H](NC(=O)[C@H](C)NC(=O)CNC(=O)[C@H](Cc1ccccc1)NC(=O)[C@H](CC(N)=O)NC(=O)[C@@H]1CCCN1C(=O)[C@H](CO)NC(=O)[C@H](CO)NC(=O)[C@H](Cc1c[nH]cn1)NC(=O)[C@H](CCCNC(=N)N)NC(=O)[C@H](CC(C)C)NC(=O)[C@H](Cc1ccccc1)NC(=O)[C@H](CCC(=O)O)NC(=O)[C@H](C)NC(=O)[C@H](CC(C)C)NC(=O)[C@H](CCCNC(=N)N)NC(=O)[C@H](CCC(N)=O)NC(=O)[C@@H](NC(=O)[C@H](C)NC(=O)[C@@H]1CSSC[C@H](NC(=O)[C@@H](N)CCCCNC(=O)CC[C@H](NC(=O)CC[C@H](NC(=O)CCCCCCCCCCCCCCCCCCC(=O)O)C(=O)O)C(=O)O)C(=O)N[C@@H](CC(N)=O)C(=O)N[C@@H]([C@@H](C)O)C(=O)N[C@@H](C)C(=O)N[C@@H]([C@@H](C)O)C(=O)N1)[C@@H](C)O)C(=O)N1CCC[C@H]1C(=O)N[C@@H](CO)C(=O)N[C@@H](CO)C(=O)N[C@H](C(=O)N[C@@H](CC(N)=O)C(=O)N[C@H](C(=O)NCC(=O)N1CCC[C@H]1C(=O)N[C@@H](CC(N)=O)C(=O)N[C@H](C(=O)N[C@@H](Cc1ccccc1)C(N)=O)[C@@H](C)O)C(C)C)[C@@H](C)O)
6,2380,"K([γGlu-γGlu-C20 diacid])CNTATCATQRLAHFLRHSSPNFGAIPSSTNVGSNTY-NH2 (disulfide 2-7; N-terminus assumed; SMILES CC[C@H](C)[C@H](NC(=O)[C@H](C)NC(=O)CNC(=O)[C@H](Cc1ccccc1)NC(=O)[C@H](CC(N)=O)NC(=O)[C@@H]1CCCN1C(=O)[C@H](CO)NC(=O)[C@H](CO)NC(=O)[C@H](Cc1c[nH]cn1)NC(=O)[C@H](CCCNC(=N)N)NC(=O)[C@H](CC(C)C)NC(=O)[C@H](Cc1ccccc1)NC(=O)[C@H](Cc1c[nH]cn1)NC(=O)[C@H](C)NC(=O)[C@H](CC(C)C)NC(=O)[C@H](CCCNC(=N)N)NC(=O)[C@H](CCC(N)=O)NC(=O)[C@@H](NC(=O)[C@H](C)NC(=O)[C@@H]1CSSC[C@H](NC(=O)[C@@H](N)CCCCNC(=O)CC[C@H](NC(=O)CC[C@H](NC(=O)CCCCCCCCCCCCCCCCCCC(=O)O)C(=O)O)C(=O)O)C(=O)N[C@@H](CC(N)=O)C(=O)N[C@@H]([C@@H](C)O)C(=O)N[C@@H](C)C(=O)N[C@@H]([C@@H](C)O)C(=O)N1)[C@@H](C)O)C(=O)N1CCC[C@H]1C(=O)N[C@@H](CO)C(=O)N[C@@H](CO)C(=O)N[C@H](C(=O)N[C@@H](CC(N)=O)C(=O)N[C@H](C(=O)NCC(=O)N[C@@H](CO)C(=O)N[C@@H](CC(N)=O)C(=O)N[C@H](C(=O)N[C@@H](Cc1ccc(O)cc1)C(N)=O)[C@@H](C)O)C(C)C)[C@@H](C)O, also called compound 92)"
